Measurements reported in patent US20180186853A1 (HANMI PHARM, published 2018).
Positions of bridges follow the written chain, without caps; N, C: chain ends. Non-standard residues stand in square brackets, D forms with d. No end group written: not given here. Aib = CC(C)(N)C(=O)O

target: human glucagon receptor (human, UniProt P47871 26-477); experiment: cell-based or functional assay
Sequence (P47871 26-477): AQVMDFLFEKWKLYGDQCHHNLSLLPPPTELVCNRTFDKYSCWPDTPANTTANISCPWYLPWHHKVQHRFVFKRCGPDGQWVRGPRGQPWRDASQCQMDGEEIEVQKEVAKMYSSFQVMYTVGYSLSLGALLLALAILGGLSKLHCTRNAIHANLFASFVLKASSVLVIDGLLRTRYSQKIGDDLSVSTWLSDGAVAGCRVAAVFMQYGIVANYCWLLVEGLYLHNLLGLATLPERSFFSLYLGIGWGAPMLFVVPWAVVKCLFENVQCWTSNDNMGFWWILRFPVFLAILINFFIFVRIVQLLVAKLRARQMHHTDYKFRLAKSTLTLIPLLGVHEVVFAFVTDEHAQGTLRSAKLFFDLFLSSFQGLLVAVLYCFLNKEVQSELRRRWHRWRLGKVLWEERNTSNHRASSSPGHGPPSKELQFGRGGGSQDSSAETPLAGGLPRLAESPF

In vitro Activity (Relative Activity of SEQ ID NO: 1, %), from cAMP EC50 [%]	Binder
0.3	W[Aib]QGTFTSDYSKCLDERRAKDFVQWLMNT (bridge 16-20; also: ring between positions 16 and 20, kind not given here) [glucagon derivative of SEQ ID NO: 30]
1.1	Y[Aib]QGTFTSDYSKYLCEKRAQDFVVWLMNT [glucagon derivative of SEQ ID NO: 15]
18.1	Y[Aib]QGTFTSDYSKYLDCKRAKEFVQWLMNT (not fully specified (bridges)) [glucagon derivative of SEQ ID NO: 14]
< 0.1	Y[Aib]QGTFTSDYSKYLDSCDADDFVVWLINT [glucagon derivative of SEQ ID NO: 10]
0.2	W[Aib]QGTFTSDYSKYCDERRAKEFVQWLMNT (bridge 16-20; also: ring between positions 16 and 20, kind not given here) [glucagon derivative of SEQ ID NO: 34]
< 0.1	W[Aib]QGTFVSDYSKYLDECRAKDFVQWLMNT (bridge 16-20; also: ring between positions 16 and 20, kind not given here) [glucagon derivative of SEQ ID NO: 28]
0.6	HSQGTFTSDYSKYLDCDRAQDFVQWLMNT [glucagon derivative of SEQ ID NO: 2]
6.3	Y[Aib]QGTFTSDYSKYLDCKRAKEFVQWLMNT (bridge 17-21; also: ring between positions 17 and 21, kind not given here) [glucagon derivative of SEQ ID NO: 31]
4.2	Y[Aib]QGTFTSDYSKYLDCRRAQVFVQWLMRT [glucagon derivative of SEQ ID NO: 16]
46.9	Y[Aib]QGTFTSDYSKYLDEKRAKCFVQWLMNT (bridge 16-20; also: ring between positions 16 and 20, kind not given here) [glucagon derivative of SEQ ID NO: 25]
17.7	Y[Aib]QGTFTSDYSKYCDERRAKEFVQWLMNT (bridge 16-20; also: ring between positions 16 and 20, kind not given here) [glucagon derivative of SEQ ID NO: 35]
6.1	HSQGTFTSDYSKYLDCERAQDFVQWLMNT [glucagon derivative of SEQ ID NO: 3]
93.6	Y[Aib]QGTFVSDYSKYLDECRAKDFVQWLMNT (bridge 16-20; also: ring between positions 16 and 20, kind not given here) [glucagon derivative of SEQ ID NO: 27]
148	Y[Aib]QGTFTSDYSKYLDEKRCKEFVQWLMNT (bridge 16-20; also: ring between positions 16 and 20, kind not given here) [glucagon derivative of SEQ ID NO: 22]

The remaining lines, values behind:

Binder	In vitro Activity (Relative Activity of SEQ ID NO: 1, %), from cAMP EC50 [%]
YXQGTFTSDYSKYLDSRRAQDFVQWLMNTC (X at position 2 = aminoisobutyric acid (Aib)) [glucagon derivative of SEQ ID NO: 44]	75.4
HSQGTFTSDYSKYLDSCDAQDFVQWLMNT [glucagon derivative of SEQ ID NO: 4]	< 0.1
Y[Aib]QGTFTSDCSKYLDERRAKEFVQWLMNT (bridge 16-20; also: ring between positions 16 and 20, kind not given here) [glucagon derivative of SEQ ID NO: 36]	9.9
Y[Aib]QGTFTSDYSKCLDERRAKDFVQWLMNT (bridge 16-20; also: ring between positions 16 and 20, kind not given here) [glucagon derivative of SEQ ID NO: 29]	61.3
Y[Aib]QGTFTSDYSKYLDEKCAKEFVQWLMNT (not fully specified (bridges)) [glucagon derivative of SEQ ID NO: 11]	4.6
Y[Aib]QGTFCSDYSKYLDERRAKDFVQWLMNT (bridge 16-20; also: ring between positions 16 and 20, kind not given here) [glucagon derivative of SEQ ID NO: 41]	45.2
Y[Aib]QGTFTSDYSKYLDEKRAKEFVQWLMNTC (bridge 16-20; also: ring between positions 16 and 20, kind not given here) [glucagon derivative of SEQ ID NO: 12]	56.3
Y[Aib]QGTFTSDYSKYLDECRAKEFVQWLMNT (bridge 16-20; also: ring between positions 16 and 20, kind not given here) [glucagon derivative of SEQ ID NO: 20]	300
Y[Aib]QGTFTSDYSKYLDERRAKEFVQWLMNTC (bridge 16-20; also: ring between positions 16 and 20, kind not given here) [glucagon derivative of SEQ ID NO: 37]	226
Y[Aib]QGTFTSDYSKYLDEKCAKEFVQWLMNT (bridge 16-20; also: ring between positions 16 and 20, kind not given here) [glucagon derivative of SEQ ID NO: 21]	57.8
Y[Aib]QGTFTSDYSCYLDSRRAQDFVQWLMNT [glucagon derivative of SEQ ID NO: 13]	5.2
Y[Aib]QGTFTSDYSKYLDCVRAQDFVQWLMRT [glucagon derivative of SEQ ID NO: 17]	23.2
Y[Aib]QGTFTSDCSKYLDSRRAQDFVQWLMNT [glucagon derivative of SEQ ID NO: 43]	1.6
HSQGTFTSDYSKYLDSCEAQDFVQWLMNT [glucagon derivative of SEQ ID NO: 5]	0.3
YXQGTFTSDYSKYLDSRRAQDFVQWLMNT (X at position 2 = aminoisobutyric acid (Aib)) [glucagon derivative of SEQ ID NO: 33]	108
Y[Aib]QGTFTSDYSKYLDSCDAQDFVVWLINT [glucagon derivative of SEQ ID NO: 9]	< 0.1
Y[Aib]QGTFCSDYSKYLDSRRAQDFVQWLMNT [glucagon derivative of SEQ ID NO: 42]	37.9
W[Aib]QGTFTSDYSKYLDECRAKDFVQWLMNT (bridge 16-20; also: ring between positions 16 and 20, kind not given here) [glucagon derivative of SEQ ID NO: 26]	1
Y[Aib]QGTFVSDCSKYLDERRAKDFVQWLMNT (bridge 16-20; also: ring between positions 16 and 20, kind not given here) [glucagon derivative of SEQ ID NO: 39]	3.7
Y[Aib]QGTFTSDYSKCLDEKRAKEFVQWLMNT (bridge 16-20; also: ring between positions 16 and 20, kind not given here) [glucagon derivative of SEQ ID NO: 24]	58
SQGTFTSDYSKYLDECRAKEFVQWLMNT (lactam 15-19) [glucagon derivative of SEQ ID NO: 32]	0.7
Y[Aib]QGTFTSDYSKYLDSRRACDFRLWLMNT [glucagon derivative of SEQ ID NO: 18]	< 0.1
Y[Aib]QGTFCSDYSKYLDERRAKEFVQWLMNT (bridge 16-20; also: ring between positions 16 and 20, kind not given here) [glucagon derivative of SEQ ID NO: 38]	167
Y[Aib]QGTFTSDYSKYLCEKRAKEFVQWLMNT (bridge 16-20; also: ring between positions 16 and 20, kind not given here) [glucagon derivative of SEQ ID NO: 19]	12.1
Y[Aib]QGTFTSDYSKYCDEKRAKEFVQWLMNT (bridge 16-20; also: ring between positions 16 and 20, kind not given here) [glucagon derivative of SEQ ID NO: 23]	76.8
Y[Aib]QGTFVSDYSKYLDERRAKDFVQWLMNTC (bridge 16-20; also: ring between positions 16 and 20, kind not given here) [glucagon derivative of SEQ ID NO: 40]	40.8
